B1: RSAD1 (parent)
chain: YCNFNKYIPRRLEEAAMQKCLVTE

Variants of: B1
Experiment: protein stability index of a GFP-peptide fusion (GPS, HEK-293T) (PSI 1-6); higher = more stable
Details: c terminus: a fixed tail appended
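Note: lentivirally expressed fusions sorted by FACS into six bins by GFP to DsRed ratio, PSI derived from sequencing read proportions per bin multiplied by bin number.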

Protein stability index, by site and new letter:
E13: G 2.11, S 1.46, K 1.82, R 2.19, D 3.69, T 2.55, N 3.29, W 2.49
I8: Y 1.5, S 2.37, Q 1.61, P 1.83, D 2.3, K 1.71, N 1.68
Y7: E 3.1, Q 1.8, S 2.51, I 2.02, G 2.18, L 2, C 2.52, D 2.49, H 2.68, P 2.42
Q18: M 3.17, S 2.02, L 1.71, P 1.96, F 2.34, G 1.76, D 1.84, A 1.75, T 1.89
F4: W 2.56, K 2.26, R 1.95, H 1.21, P 2.82, G 2.66, V 3.15, D 2.58
R11: F 3.01, Q 1.67, T 1.95, G 2.64, Y 1.48, L 2.57, N 1.61, W 2.73
N5: R 2.48, A 1.68, Y 2.75, I 2.17, Q 2.18, S 3.3, W 2.15, D 1.49, T 2.59
E24: M 2.84, K 2.46, W 2.13, D 2.4, N 2.17, C 3.44, G 2.29, T 1.44
L21: I 1.79, S 1.42, E 2.41, Y 3.19, V 2.01, H 2.69, R 1.51, G 2.03, T 2.04, D 2.17
R10: K 1.64, A 1.91, D 1.92, H 1.94, I 2.39, G 1.24
C2: S 1.84, T 2.2, I 1.76, Q 1.87
E14: F 2.31, D 2.71, C 2.27, R 2.33, W 1.96, T 2.09, H 1.65
K19: N 2.37, L 3.06, V 1.48, Q 2.96, S 2.41
T23: P 3.87, F 3, I 2.22, E 1.94, Q 3.64
P9: C 3.11, D 2.38, G 2.12, W 2.6, T 1.79, S 2.52, K 1.73, Q 1.54, R 1.37, E 3.05
A15: N 2.09, F 2.02, D 2.55, W 1.04, I 1.56, V 3.4, E 1.84
M17: K 2.85, A 1.98, G 1.99, R 1.71
C20: R 2.55, F 2.7, A 2.87, Y 4.07
L12: V 2.74, S 2.45, N 3.28, G 2.96, K 2.42, M 2.83
V22: C 2.58, P 1.97, E 2.41, R 3.88, N 2.35, M 2.58, G 2.02, K 2.57
N3: I 1.61, S 1.84, K 1.84, A 2.13, Y 1.63, T 2.6, Q 2.04
A16: Y 2.16, C 3.34, H 3.97, V 2.98, Q 2.23
Y1: C 1.97, Q 3.07, W 2.65, R 1.96, P 2.27, V 1.99, E 2.49
K6: N 2.56, E 3.37, Y 3.05, M 3.03, S 2.19

Reference: the supplement of paper PMC10567573
